From article doi:10.1101/2021.09.17.460839, “Structural and functional characterization of Rv0792c from Mycobacterium tuberculosis: identifying small molecule inhibitors against GntR protein” (bioRxiv, 2021)

Target: the molecule itself
Assay: AUC

B1: (His)6-Rv0792c, wild type, GntR family (HutC subfamily) transcription factor from M. tuberculosis (natural protein)
chain: MTSVKLDLDAADLRISRGSVPASTQLAEALKAQIIQQRLPRGGRLPSERELIDRSGLSRVTVRAAVGMLQRQGWLVRRQGLGTFVADPVEQELSCGVRTITEVLLSCGVTPQVDVLSHQTGPAPQRISETLGLVEVLCIRRRIRTGDQPLALVTAYLPPGVGPAVEPLLSGSADTETTYAMWERRLGVRIAQATHEIHAAGASPDVADALGLAVGSPVLVVDRTSYTNDGKPLEVVVFHHRPERYQFSVTLPRTLPGSGAGIIEKRDFA
notes: not shown: His6, N-terminal, kept
B1 was tested, and the “stoichiometry N” value was 2.
